The record followed here is a protein production outcome set (Wang et al. 2014).

A short description of the data set: label from the status in PepcDB records.
Regarding “MAEHPIQGLMETAMESIKEMVDVNTIVGDAVQAPDGTVIIPISKVTFGFAAGGGEFASCCSVDEKGEDSSDDSSKPEIKFPFAGGSGAGVSINPVAFMVVGQGQIKLLPVNINSSLEKILDLIPEIIEKTKDSVKKNLKVKKEIKPGNGESCAKSSKEDENELEHHHHHH”, the protein production entry is given as “not failed”. The result for “MAEISHPPMEQLQDLEYCIDSNPPWPETVLLAFQNYILMLGTSAFIPALLVPAMGGSDGDRARVIQTLLFVAGIKTLLQALFGTRLPAVVGGSLAYVVPIAYIINDSSLQKISNDHERFIHTMRAIQGALIVASSIQIILGYSQVWGLFSRFFSPLGMAPVVGLVGLGMFQRGFPQLGNCIEIGLPMLLLVIGLTQYLKHVRPFKDVPIFERFPILICVTIVWIYAVILTASGAYRGKPSLTQHSCRTDKANLISTAPWFKFPYPLQWGPPTFSVGHSFAMMSAVLVSMVESTGAYIAASRLAIATPPPAYVLSRGIGWQGIGVLLDGLFGTGTGSTVLVENVGLLGLTRVGSRRVVQVSAGFMIVFSTLGKFGAVFASIPVPIYAALHCILFGLVAAVGLSFLQFTNMNSMRNLMITGLSLFLGISIPQFFAQYWDARHYGLVHTNAGWFNAFLNTLFMSPATVGLIIAVFMDNTMEVERSKKDRGMPWWVKFRTFRGDNRNEEFYTLPFNLNRFFPPT” reads “failed”; that for “MAEKALATLKELAFLEDPSPVERDAAIQRFEYTFEAFWKALQAYLREKEGLEGASPKGVIRLAREVGLLRDEEARLALGMVDDRSLTVHTYNEPLARAIFRRLPDYARLMEQVLGRLRR”, “not failed”; that for “MAEKEKKTKKKKKKEKHQSSDISFKPSSDVKGLKFGGQIIVKSFTIRRARTFELLKLLSLPSSSSPPLLSTAAYLPTNFTILAHHAWHTLTLGLGTRKSKVVVFVFETEAMKSSVVAAEGGIWPSEIPLGDVNKKMIRKLKNWEMARFKFRKGCITFYVYAVRNAGNEGFAAAEDLKVILQAVVALKDFMDHTAMLVMPHQKSINYSSCPPFAMAH”, “failed”.

Regarding “MAEKLLHTAESDAGIGSWVLHMESGRLEWSQAVHDIFGTDSATFDATEDAYFQRVHPDDRARVRRELDRHVLGDRPFDVEYRIVRPDGQVRELLERNHIQRQASGQVDHLWGTVIDMTEHKQLKRQLQLSQLAVEHCSEGIAIADEGLDWLYVNPALARMGGLTMADPSQLSGLFMAPGVEARLEREALRELLDASGAWQGELLLARRGAAPLPVLASATRLRDEDGRLLSVWVVSDISGMKESERRLHALAFFDGLTGLANRALFGERLRWHLQNEPAGGRLAILFLDLNGFKQVNDLLGHEAGDQVLREVARRLQAGCRPGELAARWGGDEFAVLLPGVADDAVLAARLRELREAARAERWGGGRWLRVSASLGAAVYPESAEDAERLIQLADRAMYRAKSEGGGQVWLHDGGGLRTLAGADCGA”, the protein production entry is on record as “failed”. Take “MAEKSNKLDHIGIAVTSIKDVLPFYVGSLKLKLLGMEDLPSQGVKIAFLEIGESKIELLEPLSEESPIAKFIQKRGEGIHHIAIGVKSIEERIQEVKENGVQMINDEPVPGARGAQVAFLHPRSARGVLYEFCEKKEQ”: the protein production result is reported as “not failed”. The result for “MAEKSQIPDNNNNTSSSAKKPTPEIGSGSGKRYYNPPESVNPDQATLREQWKFAIRQYSKWYSHAWGTAILAGGFFFGLGWIIKGSNPLPSLQSSSKPRDEEK” reads “failed”; that for “MAELIHSTIGRLLEQTADAYPDRDAVVYPDRNIRYTYAQFDSLCRQTAKGLMRMGIGKGDHVAIWASNISEWLAVQFATAKIGAVLVTVNTNYQAHELDYLLKQSDAAALIIMDSYRGTSYPDIVNSLIPELQEAKPGQLKSERYPFLKTLIYIGNKRLSGMYHWDDTEILAKTVTDAELEERMNSLDKDNVINMQYTSGTTGFPKGVMLTHFNVINNAANIAECMALTSQDRMCIPVPFFHCFGCVLGVLACVSVGAAMIPVQEFDPVTVLKTVEKEKCTVLHGVPTMFIAELHHPDFDAYDLSTLRTGIMAGSPCPSEVMKAVIERMGMKDITIAYGQTEASPVITQTRANDSFIRRVETTGRALPHTEVKIVEPGTCQEVQRGMQGELCTRGYHVMKGYYKDKDATRKAINHDGWLFTGDLAVMDEDGYCRITGRLKDMLIRGGENIYPREIEEFLYQHPAVLDVQVVGVPDAKFGEEAAAWIKLKDGKSVSPDELKAYCKGKIARHKIPRYVIFTDDYPMTASGKIQKY”, “not failed”; that for “MAELLAAGPSGVAGAVARAMERSAPGSGASWYGGDHTDFRDGVFLREVIGVQVVVQEGGTAVPEAMTGLPPRPGGFTGRDRETEDLLRALDPDGAQSAAAPVASVSGLGGIGKTALAVETAHLARERGWFPGGILFIDLHGYDREPVTADRSLRTLLHALGIPPEHMPTTTDERAALYRSTLAVRAGERGGMLVLADNASSAEQVRPLLPGDFRHRVLVTSRDRLPQLGARLLPLDELGTREAYELLDRALRIADPHDGRVGDDPGTTGRLASLCGHLPLALQIAAALLAADPAKPVSELVAELAEAHDRLDHLDDGERSVRAAFELSYRRLPPEQARLLRLLALAPGPEVSDEVVAALVGADRPPVRDQHALARAHLVERGHTRGSWRLHDLVRVFGAGVVARAEGDAARARVLRHYLERARAADARLKPRTEDDEGTRPFRSREEALAWFDAERAGLVAAVQWATDRQLAADAVRLAGALGEYLDWRRRFDDSVTVCGAVCAAARRAGDEAAEAAAWNRTGTALRGNRRLREAYDAHRRAHDLYDALGHDNGRAMALSNLGAILGDVGQVDDAVDAFRLALGLFRRTGDRHSEAGVWNNLALILRKSGRVDEALDALRSALGLYRETGDRPREGRARHNYAVALNARGRTAEAVTACLDSLDICEEFEDWHGAARTLYALGLVHETAGDAERARVRMTQAADAYERAGSPKEAEQARRAARLTGPAPTGTPAPAAPPDRTADSGPPGPRPPGVPGNAGP”, “failed”. The result for “MAENHCELLPPAPSGLGAGLGGGLCRRCSAGMGALAQRPGGVSKWVRLNVGGTYFLTTRQTLCRDPKSFLYRLCQADPDLDSDKDETGAYLIDRDPTYFGPVLNYLRHGKLVINKDLAEEGVLEEAEFYNITSLIKLVKDKIRERDSRISQMPVKHVYRVLQCQEEELTQMVSTMSDGWKFEQLVSIGSSYNYGNEDQAEFLCVVSKELHNTPYGTTSEPSEKAKILQERGSRM” reads “not failed”. For the sequence “MAEPKQSSLSEVKTNVIGSRKEEKESMFHGKETHGRSEDIDEKTRVDDVKGPGVLGRMMEEMEAIVDAVTPNKSSDK”, the protein production entry is “failed”. Turning to “MAEPVQEELSVLAAIFCRPHEWEVLSRSETDGTVFRIHTKAEGFMDADIPLELVFHLPVNYPSCLPGISINSEQLTRAQCVTVKEKLLEQAESLLSEPMVHELVLWIQQNLRHILSQPETG”, the protein production result is “not failed”. For the sequence “MAEQDLTMIVGTYTSGDSKGLYSFRFNEENGTATALSEAEVENPSYLVPSADGKFIYAVSEFSNEQAAANAFAFNKEEGTFRLLNTQKTGGEDPCYIITNGSNVVTANYSGGSISVFPIDKDGSLLPASEVVKFKGSGADKERQEKPHLHCVRITPDGKYLFADDLGTDQIHKFIVNPNAKADNEDVFLKEGSPASYKVEAGSGPRHLTFAPNGSYAYLINELSGTVIAFEYNDGELKEIQTIAADTVGAKGSGDIHISPDGKFLYASNRLKADGLAIFSIHPENGMLTKVGYQLTGIHPRNFIITPNGKYLLVACRDSNVIQVYERDTDTGLLTDIRKDIKVDKPVCIKFVPLEHHHHHH”, the protein production entry was “not failed”. In the case of “MAERINPVVKAVLEWGPIAAFFLGYVKLKDETFTVAGTDYQGFIIVTAAFIPLMVICTGLLWWLSGKLSKMQVATVVLVVVFGGLSVWLNDDRFFKMKPTMIYLLFGVLLGIGLLRGQSWLRLVLEEAIPLQDEGWMILTRRVMAFFFALAIANEAVWRLMSTDAWVNFKTFGLPLAIFVFFMTQSGLFKRYNPERKDEA”, the protein production result is recorded as “not failed”. To “MAERLGILVGGGPAPGINSVISSVTIEAINNGLEVIGIYDGFKHLVEGKTNMVKKLSIEDVSRIHIEGGSILRTSRVNPAKSEETLEKTVQTLKKLGIKYLVTIGGDDTAFSASKVCERSKGEIKVVHVPKTIDNDLPLPENMPTFGFETARHVATELVYNLMQDSRTTNRWYFVAMMGREAGHLALGVGKAASATITIIPEEFKEGVTLEEVCDVLDGAILKRKLMGRDDGVAVIGEGIAEKMDPEELANIPGVIVEKDPHGHLRLAEIPLATILKRAIERRYAERGERIHIVDVTIGYELRSARPIPFDIVYTRTLGYGAVRFLLGDYSDLPGGMVCVVGGRIKILPFDAFMDPKTGRTKVRVVDVRSEDYRVARKYMIRLEKKDLEDPETLEKLAKLAKMEPEEFKKKYWHTTELP” belongs “failed”.
